From article PMC6978347

B1: AtNBR1^1–94 (AtNBR1–PB1) [Arabidopsis thaliana] / MBP-tagged wild-type AtNBR1–PB1^1–94 [Arabidopsis thaliana] (parent)
chain 1: MESTANALVVKVSYGGVLRRFRVPVKANGQLDLEMAGLKEKIAALFNLSADAELSLTYSDEDGDVVALVDDNDLFDVTNQRLKFLKINVNAGVS
chain 2: B1 chain 1

Variants of: B1
Assay: pull-down (MBP pulldown, band quantification)
Details: with MBP-tagged wild-type AtNBR1–PB1^1–94 [Arabidopsis thaliana];; read off a plot

| ratio to parent | Variant |
| --- | --- |
| 0.32 | chain 1 MESTANALVVAVSYGGVLRRFRVPVKANGQLDLEMAGLKEKIAALFNLSADAELSLTYSDEDGDVVALVDDNDLFDVTNQRLKFLKINVNAGVS [chain 1 K11A] |
| 0.06 | chain 1 MESTANALVVKVSYGGVLRRFRVPVKANGQLDLEMAGLKEKIAALFNLSADAELSLTYSAEAGDVVALVDDNDLFDVTNQRLKFLKINVNAGVS [chain 1 D60A D62A] |
| 0.01 | chain 1 MESTANALVVKVSYGGVLAAFRVPVKANGQLDLEMAGLKEKIAALFNLSADAELSLTYSDEDGDVVALVDDNDLFDVTNQRLKFLKINVNAGVS [chain 1 R19A R20A] |
| 0.22 | chain 1 MESTANALVVKVSYGGVLRRFRVPVKANGQLDLEMAGLKEKIAALFNLSADAELSLTYSDADGDVVALVDDNDLFDVTNQRLKFLKINVNAGVS [chain 1 E61A] |
| 0.04 | chain 1 MESTANALVVAVSYGGVLRRFRVPVKANGQLDLEMAGLKEKIAALFNLSADAELSLTYSAEDGDVVALVDDNDLFDVTNQRLKFLKINVNAGVS [chain 1 K11A D60A] |
| 0.27 | chain 1 MESTANALVVKVSYGGVLRRFRVPVKANGQLDLEMAGLKEKIAALFNLSADAELSLTYSDEDGAVVALVDDNDLFDVTNQRLKFLKINVNAGVS [chain 1 D64A] |
